The text below walks through data of PMC6283417, “The structure of the RbBP5 β-propeller domain reveals a surface with potential nucleic acid binding sites”.

For data set [1], the target named is T1, RbBP5 beta-propeller (1-340) wild type (mouse, UniProt Q8BX09 1-340). Description: fluorescence anisotropy; Anisotropy: 50 mM Tris pH 7.4, 150 mM NaCl, 0.5 mM DTT, 20 C; NMR conditions not in the material. Conditions: protein: recombinant; tags: 6xHis-SUMO removed by 3C protease; label: 6-FAM (3'). On the technique in general: Fluorescence polarisation rises when a labelled molecule tumbles more slowly, as on binding a larger partner.
T1 sequence (Q8BX09 1-340): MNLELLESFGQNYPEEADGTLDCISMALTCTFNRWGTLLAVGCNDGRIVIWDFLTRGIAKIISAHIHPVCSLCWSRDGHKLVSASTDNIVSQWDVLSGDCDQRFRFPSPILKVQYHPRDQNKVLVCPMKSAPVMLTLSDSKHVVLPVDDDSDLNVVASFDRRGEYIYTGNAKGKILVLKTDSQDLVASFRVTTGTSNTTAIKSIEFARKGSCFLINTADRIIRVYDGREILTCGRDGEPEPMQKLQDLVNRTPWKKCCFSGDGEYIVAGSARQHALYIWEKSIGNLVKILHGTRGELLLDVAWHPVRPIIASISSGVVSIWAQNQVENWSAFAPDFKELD

The target of data set [2] is T1, RbBP5 beta-propeller (1-340) wild type. In words: NMR 1H-15N HSQC titration; marginally stronger than 7N-RNA pool; Anisotropy: 50 mM Tris pH 7.4, 150 mM NaCl, 0.5 mM DTT, 20 C; NMR conditions not in the material. The following applies: protein: recombinant; tags: 6xHis-SUMO removed by 3C protease.

As usually defined, the Kd is a measure of binding affinity in units of concentration.

On to GCAUAGGUUCGAUC (ssRNA) [14-mer ssRNA-6FAM], for which the Kd in data set [1] was 22.5 ± 3.2 µM.

Take UAGGUUC (ssRNA) [SIA optimized RNA 7-mer]: the binding result in data set [2] is recorded as “binds”.
